Experimental data from patent US20240391992A1 (Eli Lilly, published 2024).
Numbering of substitutions follows the chain as printed. One block for each molecule: values may come before it.

Tests used:
[1] = molecular target: cynomolgus (cyno) XCL1 (cynomolgus); assay: flow cytometry, 293T cells with 1 ug/mL chemokine and 100 nM isotype control antibody, anti-human-Fc/PE
human XCL2 (human) = human XCL2 (human) (UniProt Q9UBD3); assay: as above
rat XCL1 (rat) = rat XCL1 (rat) (UniProt P51672); assay: as above
Sequence of rat XCL1 (rat) (P51672 22-114 limits assumed): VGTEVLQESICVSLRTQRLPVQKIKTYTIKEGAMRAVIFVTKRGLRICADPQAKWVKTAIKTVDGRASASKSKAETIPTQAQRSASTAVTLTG

human XCL1 (human) = human XCL1 (human) (UniProt P47992); assay: as above
mouse XCL1 (mouse) = mouse XCL1 (mouse) (UniProt P47993); assay: as above
Sequence of mouse XCL1 (mouse) (P47993 22-114 limits assumed): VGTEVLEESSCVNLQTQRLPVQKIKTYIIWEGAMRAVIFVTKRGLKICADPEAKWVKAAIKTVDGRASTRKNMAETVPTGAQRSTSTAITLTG

human XCR1 = molecular target: T1, human XCR1 (human, UniProt P46094 1-333); assay: cell-based or functional assay
T1 sequence (looked up): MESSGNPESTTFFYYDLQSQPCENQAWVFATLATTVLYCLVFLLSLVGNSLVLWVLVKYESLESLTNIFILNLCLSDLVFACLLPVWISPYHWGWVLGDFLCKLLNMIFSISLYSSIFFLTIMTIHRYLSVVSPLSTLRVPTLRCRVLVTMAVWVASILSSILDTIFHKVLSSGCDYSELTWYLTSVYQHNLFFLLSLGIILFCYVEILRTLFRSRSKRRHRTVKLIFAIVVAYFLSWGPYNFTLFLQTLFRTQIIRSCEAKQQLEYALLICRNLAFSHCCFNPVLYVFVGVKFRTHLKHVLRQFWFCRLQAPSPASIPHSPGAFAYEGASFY

MFI [1]: 8.4 MFI | MFI (human XCL2 (human)): 8.6 MFI | MFI (rat XCL1 (rat)): 8.2 MFI | MFI (human XCL1 (human)): 7.6 MFI | MFI (mouse XCL1 (mouse)): 8 MFI
Molecule: hIgG1-AAS isotype control antibody

GeoMean EC50 (nM), migration of XCR1-expressing Ba/F3 cells (Boyden chamber) (human XCR1): 858 nM
B1: human XCL1 (ligand)
chain: VGSEVSDKRTCVSLTTQRLPVSRIKTYTITEGSLRAVIFITKRGLKVCADPQATWVRDVVRSMDRKSNTRNNMIQTKPTGTQQSTNTAVTLTG

GeoMean EC50 (nM), migration of XCR1-expressing Ba/F3 cells (Boyden chamber) (human XCR1): 115 nM
B2: Human XCL1 CC3 (ligand)
chain: B1 chain with V21C, V59C
